{"source": "patent US12076374B1", "about": "“Anti-microbial and anti-inflammatory compositions and methods for treating enteric diseases in animals” (Vets Plus, Inc., priority 2019, dated 2024)", "molecules": {"B1": {"name": "ovotransferrin (protein, UniProt P02789 20-705, looked up)", "Ovotransferrin": "APPKSVIRWCTISSPEEKKCNNLRDLTQQERISLTCVQKATYLDCIKAIANNEADAISLDGGQAFEAGLAPYKLKPIAAEVYEHTEGSTTSYYAVAVVKKGTEFTVNDLQGKTSCHTGLGRSAGWNIPIGTLLHRGAIEWEGIESGSVEQAVAKFFSASCVPGATIEQKLCRQCKGDPKTKCARNAPYSGYSGAFHCLKDGKGDVAFVKHTTVNENAPDQKDEYELLCLDGSRQPVDNYKTCNWARVAAHAVVARDDNKVEDIWSFLSKAQSDFGVDTKSDFHLFGPPGKKDPVLKDLLFKDSAIMLKRVPSLMDSQLYLGFEYYSAIQSMRKDQLTPSPRENRIQWCAVGKDEKSKCDRWSVVSNGDVECTVVDETKDCIIKIMKGEADAVALDGGLVYTAGVCGLVPVMAERYDDESQCSKTDERPASYFAVAVARKDSNVNWNNLKGKKSCHTAVGRTAGWVIPMGLIHNRTGTCNFDEYFSEGCAPGSPPNSRLCQLCQGSGGIPPEKCVASSHEKYFGYTGALRCLVEKGDVAFIQHSTVEENTGGKNKADWAKNLQMDDFELLCTDGRRANVMDYRECNLAEVPTHAVVVRPEKANKIRDLLERQEKRFGVNGSEKSKFMMFESQNKDLLFKDLTKCLFKVREGTTYKEFLGDKFYTVISSLKTCNPSDILQMCSFLEGK"}}, "type_in_all_cases": "in vivo", "key": {"gut microbiome": {"system": "gut microbiome", "experiment": "Fecal 16S rRNA microbiome analysis of newly weaned piglets with diarrhea", "description": "The microbiome of newly weaned piglets with diarrhea was examined when treated with components of the invention. Fecal samples of N=3 control (C) newly weaned piglets without diarrhea (D) and for N=6 newly weaned piglets that did have diarrhea were examined. 3 of these piglets with diarrhea were randomly selected and treated (T3) with 2.5 grams/piglet/day with ovotransferrin by mixing the ovotransferrin into dry feed for 5 consecutive days. Fecal samples were taken from the Diarrhea pigs, the Treated piglets and Control piglets after 5 days trial.\nFecal samples then had DNA was extracted using the PowerSoil DNA extraction kit (QIAGEN). Extracted DNA was then sequenced where the V4 variable region of the bacterial 16S rRNA gene was amplified (Primers 515F and 806R) and libraries constructed using a dual index approach1. 16SrRNA libraries were sequenced on a MiSeq V3 instrument (Illumina), targeting 2×300 PE reads. Bioinformatics occurred by processing of amplicons that was based on protocols that rely on several open-source software (FastQC2, cutadapt3, bbmap4 and the DADA25 plugin within QIIME26) to remove adaptors and primer sequences, merge PE reads, filter out low quality reads and generate counts of unique Amplicon Sequence Variants (ASVs) or unique taxonomic groups that represent the abundance of species and/or strains in each sample. […]"}, "PEDV": {"system": "PEDV", "experiment": "PEDV newborn piglets, dose response of ovotransferrin drench with or without ORS", "conditions": "for % Survival: 100 ml drench twice daily, after 5 days"}, "[1]": {"experiment": "28-d feeding trial in weaned pigs with diarrhea, fecal score and growth performance", "protocol": "Weaning can be a stressful time for performance animals that are transitioning to new food and newly encountering enteric pathogens. These factors can result in diarrhea to varying degrees. The objective of this study was to evaluate the effect of supplementing dietary ovotransferrin of the invention to pigs that had slight diarrhea within a week upon weaning. Growth performance and fecal score were measured. […] Pigs with diarrhea were housed in the nursery pens with 3 pigs per pen and allowed free access to the diet and water ad-libitum for the entire experimental period. Then, they were treated with a solution mixed with electrolytes and ovotransferrin by drenching for 3 days. Ovotransferrin was produced as described in example 1. The pigs were fed test diets containing 0, 0.5, and 1.0% ovotransferrin of the invention. Body weight were recorded at day 0 (study initiation), day 7, 14, 21, and 28 postweaning. Average daily gain (ADG), average daily feed intake (ADFI) and gain:feed (G:F) ratio were calculated weekly from day 7-28 postweaning. Corn-soybean meal-based diets were used for 28 days with 2 phases (Phase 1: day 0-14 postweaning and Phase 2: day 15-28 postweaning). Ovotransferrin was added to the diets by replacing corn starch proportionally. Fecal score was recorded daily through day 14. Body weight and feed consumption were recorded weekly for the diarrhea pigs."}, "Eimeria tenella": {"system": "Eimeria tenella", "experiment": "E. tenella infection (coccidiosis) in broiler chickens, growth performance and oocysts"}, "[2]": {"conditions": "0.5% ovotransferrin in diet, d 7-14"}, "[3]": {"conditions": "0.5% ovotransferrin in diet, d 7-28"}, "[4]": {"conditions": "0.5% ovotransferrin in diet, d 14-21"}, "[5]": {"conditions": "0.5% ovotransferrin in diet, d 21-28"}, "[6]": {"conditions": "1% ovotransferrin in diet, d 7-14"}, "[7]": {"conditions": "1% ovotransferrin in diet, d 7-28"}, "[8]": {"conditions": "1% ovotransferrin in diet, d 14-21"}, "[9]": {"conditions": "1% ovotransferrin in diet, d 21-28"}}, "data": [{"molecule": "B1", "values": [{"measurement": "Microbiome diversity (Shannon index, Bray-Curtis PCoA)", "setting": "gut microbiome; 2.5 grams/piglet/day in dry feed for 5 consecutive days, fecal samples", "value": "brought the microbiome diversity back to levels similar to the control piglets"}, {"measurement": "Abundance of Veilloneaceae, Entreobacteriaceae, Paraprevotellaceae and Treponema", "setting": "gut microbiome; 2.5 grams/piglet/day in dry feed for 5 days, indicator species analysis", "value": "Reductions to the initial control baselines"}, {"measurement": "% Survival", "setting": "PEDV; 2 grams of ovotransferrin in water", "value": 40, "unit": "%"}, {"measurement": "Defecations/day/group", "setting": "PEDV; 2 grams of ovotransferrin, Day 0", "value": 30, "unit": "Defecations/day/group"}, {"measurement": "Defecations/day/group", "setting": "PEDV; 2 grams of ovotransferrin, Day 1", "value": 18, "unit": "Defecations/day/group"}, {"measurement": "Defecations/day/group", "setting": "PEDV; 2 grams of ovotransferrin, Day 3", "value": 14, "unit": "Defecations/day/group"}, {"measurement": "Defecations/day/group", "setting": "PEDV; 2 grams of ovotransferrin, Day 5", "value": 12, "unit": "Defecations/day/group"}, {"measurement": "% Survival", "setting": "PEDV; 5 grams of ovotransferrin in water", "value": 60, "unit": "%"}, {"measurement": "Defecations/day/group", "setting": "PEDV; 5 grams of ovotransferrin, Day 0", "value": 26, "unit": "Defecations/day/group"}, {"measurement": "Defecations/day/group", "setting": "PEDV; 5 grams of ovotransferrin, Day 1", "value": 18, "unit": "Defecations/day/group"}, {"measurement": "Defecations/day/group", "setting": "PEDV; 5 grams of ovotransferrin, Day 3", "value": 15, "unit": "Defecations/day/group"}, {"measurement": "Defecations/day/group", "setting": "PEDV; 5 grams of ovotransferrin, Day 5", "value": 12, "unit": "Defecations/day/group"}, {"measurement": "Fecal score", "setting": "[1]; 0.5% ovotransferrin in diet, d 0-7, scale ≤1 normal to 4 liquid, severe diarrhea", "value": 1.81}, {"measurement": "Fecal score", "setting": "[1]; 0.5% ovotransferrin in diet, d 0-14 (Phase 1), scale ≤1 normal to 4 severe diarrhea", "value": 1.80}, {"measurement": "Fecal score", "setting": "[1]; 0.5% ovotransferrin in diet, d 0-28 (Overall), scale ≤1 normal to 4 severe diarrhea", "value": 1.68}, {"measurement": "ADFI (average daily feed intake)", "setting": "[1]; [2]", "value": 581.17, "unit": "g/day"}, {"measurement": "ADG (average daily gain)", "setting": "[1]; [2]", "value": 356.06, "unit": "g/day"}, {"measurement": "G:F (gain:feed ratio)", "setting": "[1]; [2]", "value": 0.613}, {"measurement": "Fecal score", "setting": "[1]; 0.5% ovotransferrin in diet, d 7-14, scale ≤1 normal to 4 severe diarrhea", "value": 1.79}, {"measurement": "ADFI (average daily feed intake)", "setting": "[1]; [3]", "value": 868.33, "unit": "g/day"}, {"measurement": "ADG (average daily gain)", "setting": "[1]; [3]", "value": 540.76, "unit": "g/day"}, {"measurement": "G:F (gain:feed ratio)", "setting": "[1]; [3]", "value": 0.623}, {"measurement": "Body weight", "setting": "[1]; 0.5% ovotransferrin in diet, d 7 postweaning", "value": 7.87, "unit": "kg"}, {"measurement": "Body weight", "setting": "[1]; 0.5% ovotransferrin in diet, d 14", "value": 10.37, "unit": "kg"}, {"measurement": "ADFI (average daily feed intake)", "setting": "[1]; [4]", "value": 933.98, "unit": "g/day"}, {"measurement": "ADG (average daily gain)", "setting": "[1]; [4]", "value": 566.02, "unit": "g/day"}, {"measurement": "G:F (gain:feed ratio)", "setting": "[1]; [4]", "value": 0.606}, {"measurement": "Body weight", "setting": "[1]; 0.5% ovotransferrin in diet, d 21", "value": 14.33, "unit": "kg"}, {"measurement": "ADFI (average daily feed intake)", "setting": "[1]; [5]", "value": 1089.83, "unit": "g/day"}, {"measurement": "ADG (average daily gain)", "setting": "[1]; [5]", "value": 700.22, "unit": "g/day"}, {"measurement": "G:F (gain:feed ratio)", "setting": "[1]; [5]", "value": 0.643}, {"measurement": "Body weight", "setting": "[1]; 0.5% ovotransferrin in diet, d 28", "value": 19.23, "unit": "kg"}, {"measurement": "Fecal score", "setting": "[1]; 1% ovotransferrin in diet, d 0-7, scale ≤1 normal to 4 severe diarrhea", "value": 1.57}, {"measurement": "Fecal score", "setting": "[1]; 1% ovotransferrin in diet, d 0-14 (Phase 1), scale ≤1 normal to 4 severe diarrhea", "value": 1.61}, {"measurement": "Fecal score", "setting": "[1]; 1% ovotransferrin in diet, d 0-28 (Overall), scale ≤1 normal to 4 severe diarrhea", "value": 1.58}, {"measurement": "Body weight", "setting": "[1]; 1% ovotransferrin in diet, d 7", "value": 7.61, "unit": "kg"}, {"measurement": "ADFI (average daily feed intake)", "setting": "[1]; [6]", "value": 654.76, "unit": "g/day"}, {"measurement": "ADG (average daily gain)", "setting": "[1]; [6]", "value": 496.75, "unit": "g/day"}, {"measurement": "G:F (gain:feed ratio)", "setting": "[1]; [6]", "value": 0.759}, {"measurement": "Fecal score", "setting": "[1]; 1% ovotransferrin in diet, d 7-14, scale ≤1 normal to 4 severe diarrhea", "value": 1.64}, {"measurement": "ADFI (average daily feed intake)", "setting": "[1]; [7]", "value": 1043.29, "unit": "g/day"}, {"measurement": "ADG (average daily gain)", "setting": "[1]; [7]", "value": 645.02, "unit": "g/day"}, {"measurement": "G:F (gain:feed ratio)", "setting": "[1]; [7]", "value": 0.618}, {"measurement": "Body weight", "setting": "[1]; 1% ovotransferrin in diet, d 14", "value": 11.09, "unit": "kg"}, {"measurement": "ADFI (average daily feed intake)", "setting": "[1]; [8]", "value": 1084.42, "unit": "g/day"}, {"measurement": "ADG (average daily gain)", "setting": "[1]; [8]", "value": 584.42, "unit": "g/day"}, {"measurement": "G:F (gain:feed ratio)", "setting": "[1]; [8]", "value": 0.539}, {"measurement": "Body weight", "setting": "[1]; 1% ovotransferrin in diet, d 21", "value": 15.18, "unit": "kg"}, {"measurement": "ADFI (average daily feed intake)", "setting": "[1]; [9]", "value": 1390.69, "unit": "g/day"}, {"measurement": "ADG (average daily gain)", "setting": "[1]; [9]", "value": 853.90, "unit": "g/day"}, {"measurement": "G:F (gain:feed ratio)", "setting": "[1]; [9]", "value": 0.614}, {"measurement": "Body weight", "setting": "[1]; 1% ovotransferrin in diet, d 28", "value": 21.16, "unit": "kg"}, {"measurement": "Weight (g) in chickens infected with E. tenella", "setting": "Eimeria tenella; 0.5% ovotransferrin in feed day 7 through 21, Day 7", "value": "110 ± 5", "unit": "g"}, {"measurement": "Weight (g) in chickens infected with E. tenella", "setting": "Eimeria tenella; 0.5% ovotransferrin in feed, Day 14 (day of infection)", "value": "283 ± 10", "unit": "g"}, {"measurement": "Weight (g) in chickens infected with E. tenella", "setting": "Eimeria tenella; 0.5% ovotransferrin in feed, Day 21", "value": "470 ± 15", "unit": "g"}, {"measurement": "Weight (g) in chickens infected with E. tenella", "setting": "Eimeria tenella; 1.0% ovotransferrin in feed, Day 7", "value": "115 ± 6", "unit": "g"}, {"measurement": "Weight (g) in chickens infected with E. tenella", "setting": "Eimeria tenella; 1.0% ovotransferrin in feed, Day 14", "value": "293 ± 14", "unit": "g"}, {"measurement": "Weight (g) in chickens infected with E. tenella", "setting": "Eimeria tenella; 1.0% ovotransferrin in feed, Day 21", "value": "529 ± 22", "unit": "g"}, {"measurement": "Weight (g) in chickens infected with E. tenella", "setting": "Eimeria tenella; 2.0% ovotransferrin in feed, Day 7", "value": "115 ± 6", "unit": "g"}, {"measurement": "Weight (g) in chickens infected with E. tenella", "setting": "Eimeria tenella; 2.0% ovotransferrin in feed, Day 14", "value": "293 ± 14", "unit": "g"}, {"measurement": "Weight (g) in chickens infected with E. tenella", "setting": "Eimeria tenella; 2.0% ovotransferrin in feed, Day 21", "value": "571 ± 15", "unit": "g"}, {"measurement": "Oocysts count in fecal sample", "setting": "Eimeria tenella; as compared with positive infected control, *p<0.01", "value": "significantly lower"}, {"measurement": "Histopathology of cecum", "setting": "Eimeria tenella; cecum samples at end of experiment, versus positive infected control", "value": "normal structures of cecal epithelium"}, {"measurement": "E. tenella infection", "setting": "Eimeria tenella; given alone in feed", "value": "inhibited E. tenella infection"}, {"measurement": "Feed conversion rate", "setting": "Eimeria tenella; treated groups, E. tenella infected broiler chickens", "value": "higher"}]}]}
